US20180008672A1, “ANTI-ACTIVIN A ANTIBODIES AND METHODS OF USE THEREOF FOR TREATING PULMONARY ARTERIAL HYPERTENSION” (Regeneron Pharmaceuticals, Inc., priority 2016, published 2018)

Test system: rat model of pulmonary hypertension induced by monocrotaline
Assay: rat model of pulmonary hypertension induced by monocrotaline
Format: in vivo, rat (Sprague Dawley)
Procedure: To further evaluate the effect of anti-Activin A antibodies in pulmonary arterial hypertension, a rat model of pulmonary hypertension induced by monocrotaline was used.
Six to seven week old Sprague Dawley rats were used. Rats were separated into treatment groups such that body weights were similar among different groups. Rats were subcutaneously administered either 40 mg/kg of monocrotaline or 5 mL/kg of saline at day 0. At 14 days post injection, saline-injected rats were orally dosed with PEG 400 (at 50:50 v/v, Affymetrix Inc., #19957) at 5 mL/kg daily for two weeks, and monocrotaline-injected rats were separated into 5 groups with a group (n=9) orally dosed with PEG 400 at 5 mL/kg daily for two weeks, another group (n=12) orally administered macintentan at 30 mg/kg daily for two weeks, and three groups that were both orally dosed with PEG 400 at 5 mL/kg daily for two weeks and subcutaneously treated with either anti-Activin A antibodies, H4H10430P (n=9), H4H10446P2 (n=11), or an isotype control antibody (n=10) at 40 mg/kg twice a week for two weeks.
At day 27, pulmonary artery size and right ventricular function and dimensions of the rats were assessed using a high frequency ultrasound system (Vevo 2100, VisualSonics). For the assessment, rats were anesthetized (with 1.5% isoflurane at a rate of 1.0 cc/mL of medical grade air) and their temperature was monitored with a rectal temperature probe and held at approximately 37° C. with a heated platform (Vevo 2100, Visualsonics) and a warming lamp. Both brightness-mode (B-mode) and motion-mode (M-mode) imaging were used. B-mode imaging of the rat heart in cross-section was used to determine pulmonary artery cross-sectional area (PA CSA) at the level of the pulmonary valve. […] was used to determine the pulsed wave velocity time integral (VTI), which is derived from the area under the curve of representative Doppler tracings of blood flow through the pulmonary artery. Right ventricular stroke volume (RV SV) was calculated from the product of PA CSA and VTI. Right ventricular cardiac output (RV CO) was calculated from the product of SV and heart rate (HR). M-mode imaging was used to determine right ventricular free wall (RVFW) thickness during diastole and systole. […]
Right ventricular pressure was subsequently assessed for all treatment groups. […] The catheter was connected to pressure/volume instrument (MPVS-300, Millar Instruments, Inc.) that measured heart rate as well as both diastolic and systolic right ventricular pressures. […] Readings were quantified from a 60 second interval of the pressure tracing (following a 2 minute period of recording to allow for pressure stabilization). The parameters analyzed were RV diastolic and systolic pressures, heart rate and ventricular contractile function. […]

[1] = monocrotaline 40 mg/kg SC day 0, antibodies 40 mg/kg SC 2x/wk, macitentan 30 mg/kg PO daily from day 14 for two weeks, ultrasound day 27

B1: H4H10430P: fully human anti-Activin A antibody, human IgG4 Fc; HCVR/LCVR SEQ ID NOs 66/74 (antibody, V domains shown)
VH: EVQLVESGGGLVQPGRSLRLSCKASGFAFDDFAMHWVRQAPGKGLEWVSGIVWNSGDIGYADSVKGRFTISRDNAKNSLYLQLNSLRTEDTALYFCVKDMVRGLMGFNYYGMDVWGQGTTVTVSS
VL: EIVLTQSPATLSLSPGERATLSCRASQTISTYLVWYRQRPGQAPSLLIYDASNRATDIPARFSGSGSGTDFTLTISSLEPEDFAVYYCQQRSNWPITFGQGTRLEIK
[1]
  PA CSA (Ave ± SEM): 9.439 ± 0.516%% mm^2
  Right Ventricular cardiac output (Ave ± SEM): 130.0 ± 12.5 mL/min
  Stroke Volume (Ave ± SEM), right ventricular: 362.8 ± 32.6 µL
monocrotaline-injected rats, FIG. 3A
  effect on PA CSA (in words): restored PA CSA to values measured for saline-injected PEG 400 dosed rats
